{"source": "IntAct's records for PubMed 25910212", "parents": {"B1": {"name": "Zinc finger CCHC domain-containing protein 12 (Homo sapiens), Q6PEW1 (parent)", "chain": "MASIIARVGNSRRLNAPLPPWAHSMLRSLGRSLGPIMASMADRNMKLFSGRVVPAQGEETFENWLTQVNGVLPDWNMSEEEKLKRLMKTLRGPAREVMRVLQATNPNLSVADFLRAMKLVFGESESSVTAHGKFFNTLQAQGEKASLYVIRLEVQLQNAIQAGIIAEKDANRTRLQQLLLGGELSRDLRLRLKDFLRMYANEQERLPNFLELIRMVREEEDWDDAFIKRKRPKRSESMVERAVSPVAFQGSPPIVIGSADCNVIEIDDTLDDSDEDVILVESQDPPLPSWGAPPLRDRARPQDEVLVIDSPHNSRAQFPSTSGGSGYKNNGPGEMRRARKRKHTIRCSYCGEEGHSKETCDNESDKAQVFENLIITLQELTHTEMERSRVAPGEYNDFSEPL"}, "B2": {"name": "Estrogen receptor beta (Homo sapiens), Q92731-3 (parent)", "chain": "MDIKNSPSSLNSPSSYNCSQSILPLEHGSIYIPSSYVDSHHEYPAMTFYSPAVMNYSIPSNVTNLEGGPGRQTTSPNVLWPTPGHLSPLVVHRQLSHLYAEPQKSPWCEARSLEHTLPVNRETLKRKVSGNRCASPVTGPGSKRDAHFCAVCSDYASGYHYGVWSCEGCKAFFKRSIQGHNDYICPATNQCTIDKNRRKSCQACRLRKCYEVGMVKCGSRRERCGYRLVRRQRSADEQLHCAGKAKRSGGHAPRVRELLLDALSPEQLVLTLLEAEPPHVLISRPSAPFTEASMMMSLTKLADKELVHMISWAKKIPGMRGNA", "partner": "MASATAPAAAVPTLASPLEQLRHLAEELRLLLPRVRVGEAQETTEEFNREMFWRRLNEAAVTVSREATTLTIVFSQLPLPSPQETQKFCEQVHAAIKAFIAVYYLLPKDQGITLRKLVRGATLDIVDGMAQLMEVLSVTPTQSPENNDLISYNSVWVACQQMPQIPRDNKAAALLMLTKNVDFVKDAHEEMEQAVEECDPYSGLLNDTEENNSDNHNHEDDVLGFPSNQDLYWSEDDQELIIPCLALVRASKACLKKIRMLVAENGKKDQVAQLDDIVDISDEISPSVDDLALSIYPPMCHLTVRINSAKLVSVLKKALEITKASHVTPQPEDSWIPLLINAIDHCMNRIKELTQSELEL"}, "B3": {"name": "U4/U6 small nuclear ribonucleoprotein Prp31 (Homo sapiens), Q8WWY3 (parent)", "chain": "MSLADELLADLEEAAEEEEGGSYGEEEEEPAIEDVQEETQLDLSGDSVKTIAKLWDSKMFAEIMMKIEEYISKQAKASEVMGPVEAAPEYRVIVDANNLTVEIENELNIIHKFIRDKYSKRFPELESLVPNALDYIRTVKELGNSLDKCKNNENLQQILTNATIMVVSVTASTTQGQQLSEEELERLEEACDMALELNASKHRIYEYVESRMSFIAPNLSIIIGASTAAKIMGVAGGLTNLSKMPACNIMLLGAQRKTLSGFSSTSVLPHTGYIYHSDIVQSLPPDLRRKAARLVAAKCTLAARVDSFHESTEGKVGYELKDEIERKFDKWQEPPPVKQVKPLPAPLDGQRKKRGGRRYRKMKERLGLTEIRKQANRMSFGEIEEDAYQEDLGFSLGHLGKSGSGRVRQTQVNEATKARISKTLQRTLQKQSVVYGGKSTIRDRSSGTASSVAFTPLQGLEIVNPQAAEKKVAEANQKYFSSMAEFLKVKGEKSGLMST", "partner": "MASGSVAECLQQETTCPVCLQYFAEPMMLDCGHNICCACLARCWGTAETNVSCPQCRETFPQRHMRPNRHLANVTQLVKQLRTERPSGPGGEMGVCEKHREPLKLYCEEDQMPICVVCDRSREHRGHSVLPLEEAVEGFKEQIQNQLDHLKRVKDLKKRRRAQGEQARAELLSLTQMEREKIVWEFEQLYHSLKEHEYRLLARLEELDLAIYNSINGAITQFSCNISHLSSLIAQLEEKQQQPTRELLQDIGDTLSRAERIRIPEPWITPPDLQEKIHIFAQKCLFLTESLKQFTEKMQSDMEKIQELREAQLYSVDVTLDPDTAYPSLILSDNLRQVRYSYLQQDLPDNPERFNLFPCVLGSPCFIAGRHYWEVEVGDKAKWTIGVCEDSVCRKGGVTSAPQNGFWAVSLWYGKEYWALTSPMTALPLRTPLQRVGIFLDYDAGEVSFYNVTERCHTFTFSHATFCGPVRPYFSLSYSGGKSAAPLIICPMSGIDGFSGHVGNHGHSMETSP"}, "B4": {"name": "Keratin, type II cytoskeletal 2 epidermal (Homo sapiens), P35908 (parent)", "chain": "MSCQISCKSRGRGGGGGGFRGFSSGSAVVSGGSRRSTSSFSCLSRHGGGGGGFGGGGFGSRSLVGLGGTKSISISVAGGGGGFGAAGGFGGRGGGFGGGSSFGGGSGFSGGGFGGGGFGGGRFGGFGGPGGVGGLGGPGGFGPGGYPGGIHEVSVNQSLLQPLNVKVDPEIQNVKAQEREQIKTLNNKFASFIDKVRFLEQQNQVLQTKWELLQQMNVGTRPINLEPIFQGYIDSLKRYLDGLTAERTSQNSELNNMQDLVEDYKKKYEDEINKRTAAENDFVTLKKDVDNAYMIKVELQSKVDLLNQEIEFLKVLYDAEISQIHQSVTDTNVILSMDNSRNLDLDSIIAEVKAQYEEIAQRSKEEAEALYHSKYEELQVTVGRHGDSLKEIKIEISELNRVIQRLQGEIAHVKKQCKNVQDAIADAEQRGEHALKDARNKLNDLEEALQQAKEDLARLLRDYQELMNVKLALDVEIATYRKLLEGEECRMSGDLSSNVTVSVTSSTISSNVASKAAFGGSGGRGSSSGGGYSSGSSSYGSGGRQSGSRGGSGGGGSISGGGYGSGGGSGGRYGSGGGSKGGSISGGGYGSGGGKHSSGGGSRGGSSSGGGYGSGGGGSSSVKGSSGEAFGSSVTFSFR", "partner": "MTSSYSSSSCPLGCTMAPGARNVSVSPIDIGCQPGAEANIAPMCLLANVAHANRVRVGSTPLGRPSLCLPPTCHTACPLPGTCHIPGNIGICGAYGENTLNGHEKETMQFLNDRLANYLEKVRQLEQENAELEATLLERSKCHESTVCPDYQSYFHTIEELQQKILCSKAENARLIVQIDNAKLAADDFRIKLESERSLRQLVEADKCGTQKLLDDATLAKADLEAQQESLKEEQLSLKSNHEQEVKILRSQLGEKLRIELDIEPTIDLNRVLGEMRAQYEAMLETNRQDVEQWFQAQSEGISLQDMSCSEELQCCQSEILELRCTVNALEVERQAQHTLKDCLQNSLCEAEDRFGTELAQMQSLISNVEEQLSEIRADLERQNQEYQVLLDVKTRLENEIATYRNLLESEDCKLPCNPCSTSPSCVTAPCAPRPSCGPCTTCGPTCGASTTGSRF"}}}
{"variants_of": "B1", "details": "with pnma1_human PNMA1, Q8ND90"}
{"variant": "T344I", "effect of a mutation on the interaction": "with no effect"}
{"variant": "R7C", "effect of a mutation on the interaction": "with no effect"}
{"variants_of": "B1", "details": "with tfcp2_human TFCP2, Q12800"}
{"variant": "T344I", "effect of a mutation on the interaction": "with no effect"}
{"variant": "R7C", "effect of a mutation on the interaction": "with no effect"}
{"variants_of": "B2", "details": "with ccdb1_human CCNDBP1, O95273"}
{"variant": "F289L", "effect of a mutation on the interaction": "causing an interaction"}
{"variants_of": "B3", "details": "with tri27_human TRIM27, P14373"}
{"variant": "L107V", "effect of a mutation on the interaction": "with no effect"}
{"variants_of": "B4", "details": "with krt38_human KRT38, O76015"}
{"variant": "G219D", "effect of a mutation on the interaction": "with no effect"}
{"variants_of": "B4", "details": "with krt38_human KRT38, O76015", "remark": "another data set of the same source"}
{"variant": "I477N", "effect of a mutation on the interaction": "disrupting interaction strength"}
{"variant": "N186K", "effect of a mutation on the interaction": "with no effect"}
{"variant": "L484P", "effect of a mutation on the interaction": "with no effect"}
